# How the values were obtained:
# Assay in all cases: cell-based or functional assay
# [1] = biological target: HIV-1 Env of isolate MG RM-D-011 (HIV-1)
# [2] = biological target: HIV-1 Env of isolate MG RM-D-012 (HIV-1)
# [3] = biological target: HIV-1 Env of isolate MG RM-D-013 (HIV-1)
# [4] = biological target: HIV-1 Env of isolate MG RM-D-014 (HIV-1)
# [5] = biological target: HIV-1 Env of isolate MG RM-D-016 (HIV-1)
# [6] = biological target: HIV-1 Env of isolate MG RM-D-018 (HIV-1)
# [7] = biological target: HIV-1 Env of isolate MG RM-D-019 (HIV-1)
# [8] = biological target: HIV-1 Env of isolate MG RM-D-020 (HIV-1)
# [9] = biological target: HIV-1 Env of isolate MG RM-D-021 (HIV-1)
# [10] = biological target: HIV-1 Env of isolate MG RM-D-022 (HIV-1)
# [11] = biological target: HIV-1 Env of isolate MG RM-D-024 (HIV-1)
# [12] = biological target: HIV-1 Env of isolate MG RM-D-026 (HIV-1)
# [13] = biological target: HIV-1 Env of isolate MG RM-D-028 (HIV-1)
# [14] = biological target: HIV-1 Env of isolate MG RM-D-029 (HIV-1)
# [15] = biological target: HIV-1 Env of isolate MGRM-Chronic-B-012 (HIV-1)
# [16] = biological target: HIV-1 Env of isolate MGRM-F1-004 (HIV-1)
# [17] = biological target: HIV-1 Env of isolate MGRM-F1-006 (HIV-1)
# [18] = biological target: HIV-1 Env of isolate MGRM-F1-008 (HIV-1)
# [19] = biological target: HIV-1 Env of isolate MGRM-F1-010 (HIV-1)
# [20] = biological target: HIV-1 Env of isolate MGRM-F1-012 (HIV-1)
# [21] = biological target: HIV-1 Env of isolate MGRM-F1-013 (HIV-1)
# [22] = biological target: HIV-1 Env of isolate MGRM-F1-014 (HIV-1)
# [23] = biological target: HIV-1 Env of isolate MGRM-F1-015 (HIV-1)
# [24] = biological target: HIV-1 Env of isolate MGRM-F1-016 (HIV-1)
# [25] = biological target: HIV-1 Env of isolate MGRM-F1-017 (HIV-1)
# [26] = biological target: HIV-1 Env of isolate MGRM-F1-018 (HIV-1)
# [27] = biological target: HIV-1 Env of isolate MGRM-F1-020 (HIV-1)
# [28] = biological target: HIV-1 Env of isolate MGRM-F1-021 (HIV-1)
# [29] = biological target: HIV-1 Env of isolate MGRM-F1-022 (HIV-1)
# [30] = biological target: HIV-1 Env of isolate MGRM-F1-023 (HIV-1)
# [31] = biological target: HIV-1 Env of pseudovirus MGRM-AE-007 (subtype AE) (HIV-1)
# [32] = biological target: HIV-1 Env of pseudovirus MGRM-AE-008 (subtype AE) (HIV-1)
# [33] = biological target: HIV-1 Env of pseudovirus MGRM-AG-001 (subtype AG) (HIV-1)
# [34] = biological target: HIV-1 Env of pseudovirus MGRM-AG-002 (subtype AG) (HIV-1)
# [35] = biological target: HIV-1 Env of pseudovirus MGRM-AG-003 (subtype AG) (HIV-1)
# [36] = biological target: HIV-1 Env of pseudovirus MGRM-AG-005 (subtype AG) (HIV-1)
# [37] = biological target: HIV-1 Env of pseudovirus MGRM-AG-006 (subtype AG) (HIV-1)
# [38] = biological target: HIV-1 Env of pseudovirus MGRM-AG-008 (subtype AG) (HIV-1)
# [39] = biological target: HIV-1 Env of pseudovirus MGRM-AG-009 (subtype AG) (HIV-1)
# [40] = biological target: HIV-1 Env of pseudovirus MGRM-AG-011 (subtype AG) (HIV-1)
# [41] = biological target: HIV-1 Env of pseudovirus MGRM-AG-012 (subtype AG) (HIV-1)
# [42] = biological target: HIV-1 Env of pseudovirus MGRM-AG-013 (subtype AG) (HIV-1)
# [43] = biological target: HIV-1 Env of isolate 92RW008 (pseudovirus) (HIV-1)
# [44] = biological target: HIV-1 Env of isolate 92TH021 (pseudovirus) (HIV-1)
# [45] = biological target: HIV-1 Env of isolate 92UG031 (pseudovirus) (HIV-1)
# [46] = biological target: HIV-1 Env of isolate 92UG037 (pseudovirus) (HIV-1)
# [47] = biological target: HIV-1 Env of isolate 92WR009 (pseudovirus) (HIV-1)
# [48] = biological target: HIV-1 Env of isolate 92WR020 (pseudovirus) (HIV-1)
# [49] = biological target: HIV-1 Env of isolate 92WR021 (pseudovirus) (HIV-1)
# [50] = biological target: HIV-1 Env of isolate 92WR024 (pseudovirus) (HIV-1)
# [51] = biological target: HIV-1 Env of isolate 92WR026 (pseudovirus) (HIV-1)
# [52] = biological target: HIV-1 Env of isolate 93UG077 (pseudovirus) (HIV-1)
# [53] = biological target: HIV-1 Env of isolate 93WR029 (pseudovirus) (HIV-1)
# [54] = biological target: HIV-1 Env of isolate 94KE105 (pseudovirus) (HIV-1)
# [55] = biological target: HIV-1 Env of isolate 94UG103 (pseudovirus) (HIV-1)
# [56] = biological target: HIV-1 Env of isolate CMU02 (pseudovirus) (HIV-1)
# [57] = biological target: HIV-1 Env of isolate MGRM-A-001 (pseudovirus) (HIV-1)
# [58] = biological target: HIV-1 Env of isolate MGRM-A-002 (pseudovirus) (HIV-1)
# [59] = biological target: HIV-1 Env of isolate MGRM-A-003 (pseudovirus) (HIV-1)
# [60] = biological target: HIV-1 Env of isolate MGRM-A-004 (pseudovirus) (HIV-1)
# [61] = biological target: HIV-1 Env of isolate MGRM-A-005 (pseudovirus) (HIV-1)
# [62] = biological target: HIV-1 Env of isolate MGRM-A-006 (pseudovirus) (HIV-1)
# [63] = biological target: HIV-1 Env of isolate MGRM-A-007 (pseudovirus) (HIV-1)
# [64] = biological target: HIV-1 Env of isolate MGRM-A-008 (pseudovirus) (HIV-1)
# [65] = biological target: HIV-1 Env of isolate MGRM-A-009 (pseudovirus) (HIV-1)
# [66] = biological target: HIV-1 Env of isolate MGRM-A-010 (pseudovirus) (HIV-1)
# [67] = biological target: HIV-1 Env of isolate MGRM-A-011 (pseudovirus) (HIV-1)
# [68] = biological target: HIV-1 Env of isolate MGRM-A-012 (pseudovirus) (HIV-1)
# [69] = biological target: HIV-1 Env of isolate MGRM-A-013 (pseudovirus) (HIV-1)
# [70] = biological target: HIV-1 Env of isolate MGRM-A-014 (pseudovirus) (HIV-1)
# [71] = biological target: HIV-1 Env of isolate MGRM-AE-001 (pseudovirus) (HIV-1)
# [72] = biological target: HIV-1 Env of isolate MGRM-AE-002 (pseudovirus) (HIV-1)
# [73] = biological target: HIV-1 Env of isolate MGRM-AE-003 (pseudovirus) (HIV-1)
# [74] = biological target: HIV-1 Env of isolate VLGCA1 (pseudovirus) (HIV-1)
# Sequence of PGT-145 (4995_P16) (antibody) (VH): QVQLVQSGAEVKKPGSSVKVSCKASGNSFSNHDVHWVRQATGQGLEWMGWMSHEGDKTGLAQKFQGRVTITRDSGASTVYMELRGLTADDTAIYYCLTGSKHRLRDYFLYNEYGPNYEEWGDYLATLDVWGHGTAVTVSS
# Sequence of PGT-145 (4995_P16) (antibody) (VL): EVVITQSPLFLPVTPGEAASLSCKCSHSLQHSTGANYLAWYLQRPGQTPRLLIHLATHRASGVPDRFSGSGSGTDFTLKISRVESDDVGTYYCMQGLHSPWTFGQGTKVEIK
substance,measurement,setting,value
PGT-145 (4995_P16) (antibody),IC50,[1],14.7 µg/mL
same,IC50,[2],> 50 µg/mL
same,IC50,[3],3.48 µg/mL
same,IC50,[4],2.51 µg/mL
same,IC50,[5],> 50 µg/mL
same,IC50,[6],0.065 µg/mL
same,IC50,[7],0.111 µg/mL
same,IC50,[8],10 µg/mL
same,IC50,[9],> 50 µg/mL
same,IC50,[10],34.3 µg/mL
same,IC50,[11],0.224 µg/mL
same,IC50,[12],0.41 µg/mL
same,IC50,[13],0.721 µg/mL
same,IC50,[14],0.03 µg/mL
same,"IC50, pseudovirus neutralization",[15],9.06 µg/mL
same,IC50,[16],0.361 µg/mL
same,IC50,[17],13.6 µg/mL
same,IC50,[18],0.228 µg/mL
same,IC50,[19],3.32 µg/mL
same,IC50,[20],0.113 µg/mL
same,IC50,[21],0.402 µg/mL
same,IC50,[22],0.009 µg/mL
same,IC50,[23],1.76 µg/mL
same,IC50,[24],17.5 µg/mL
same,IC50,[25],0.286 µg/mL
same,IC50,[26],1.02 µg/mL
same,IC50,[27],0.816 µg/mL
same,IC50,[28],8.04 µg/mL
same,IC50,[29],0.009 µg/mL
same,IC50,[30],5.88 µg/mL
same,"IC50, pseudovirus neutralization",[31],0.181 µg/mL
same,"IC50, pseudovirus neutralization",[32],1.46 µg/mL
same,"IC50, pseudovirus neutralization",[33],0.164 µg/mL
same,"IC50, pseudovirus neutralization",[34],0.056 µg/mL
same,"IC50, pseudovirus neutralization",[35],> 50 µg/mL
same,"IC50, pseudovirus neutralization",[36],0.045 µg/mL
same,"IC50, pseudovirus neutralization",[37],6.6 µg/mL
same,"IC50, pseudovirus neutralization",[38],0.244 µg/mL
same,"IC50, pseudovirus neutralization",[39],> 50 µg/mL
same,"IC50, pseudovirus neutralization",[40],0.003 µg/mL
same,"IC50, pseudovirus neutralization",[41],> 50 µg/mL
same,"IC50, pseudovirus neutralization",[42],14.4 µg/mL
PGT-122 (4877_D15) (antibody),"IC50 (µg/mL), pseudovirus neutralization",[43],0.003 µg/mL
same,"IC50 (µg/mL), pseudovirus neutralization",[44],> 50 µg/mL
same,"IC50 (µg/mL), pseudovirus neutralization",[45],> 50 µg/mL
same,"IC50 (µg/mL), pseudovirus neutralization",[46],0.068 µg/mL
same,"IC50 (µg/mL), pseudovirus neutralization",[47],42.4 µg/mL
same,"IC50 (µg/mL), pseudovirus neutralization",[48],0.009 µg/mL
same,"IC50 (µg/mL), pseudovirus neutralization",[49],0.021 µg/mL
same,"IC50 (µg/mL), pseudovirus neutralization",[50],> 50 µg/mL
same,"IC50 (µg/mL), pseudovirus neutralization",[51],0.036 µg/mL
same,"IC50 (µg/mL), pseudovirus neutralization",[52],0.084 µg/mL
same,"IC50 (µg/mL), pseudovirus neutralization",[53],> 50 µg/mL
same,"IC50 (µg/mL), pseudovirus neutralization",[54],0.056 µg/mL
same,"IC50 (µg/mL), pseudovirus neutralization",[55],2.04 µg/mL
same,"IC50 (µg/mL), pseudovirus neutralization",[56],> 50 µg/mL
same,"IC50 (µg/mL), pseudovirus neutralization",[57],> 50 µg/mL
same,"IC50 (µg/mL), pseudovirus neutralization",[58],0.017 µg/mL
same,"IC50 (µg/mL), pseudovirus neutralization",[59],3.79 µg/mL
same,"IC50 (µg/mL), pseudovirus neutralization",[60],> 50 µg/mL
same,"IC50 (µg/mL), pseudovirus neutralization",[61],> 50 µg/mL
same,"IC50 (µg/mL), pseudovirus neutralization",[62],> 50 µg/mL
same,"IC50 (µg/mL), pseudovirus neutralization",[63],> 50 µg/mL
same,"IC50 (µg/mL), pseudovirus neutralization",[64],> 50 µg/mL
same,"IC50 (µg/mL), pseudovirus neutralization",[65],0.012 µg/mL
same,"IC50 (µg/mL), pseudovirus neutralization",[66],2.51 µg/mL
same,"IC50 (µg/mL), pseudovirus neutralization",[67],> 50 µg/mL
same,"IC50 (µg/mL), pseudovirus neutralization",[68],0.257 µg/mL
same,"IC50 (µg/mL), pseudovirus neutralization",[69],2.47 µg/mL
same,"IC50 (µg/mL), pseudovirus neutralization",[70],0.007 µg/mL
same,"IC50 (µg/mL), pseudovirus neutralization",[71],> 50 µg/mL
same,"IC50 (µg/mL), pseudovirus neutralization",[72],> 50 µg/mL
same,"IC50 (µg/mL), pseudovirus neutralization",[73],> 50 µg/mL
same,"IC50 (µg/mL), pseudovirus neutralization",[74],> 50 µg/mL
